Source: patent US20140087995A1 (published 2014)
Numbered stars: 1 amine (or outer) side, 2 acyl side, 3 side chain; on linkers, the order of the positions; unused ones are H or OH. Bridge positions count the residues as written; N and C are the ends. Side chains are listed from the residue outwards. Ends that are not written are not given here. * marks the point of attachment. C20 diacid = O=C(O)CCCCCCCCCCCCCCCCCCC(=O)*; γGlu = O=C(O)[C@H](CCC(=O)[*:2])N[*:1]; AEEA = NCCOCCOCC(=O)O

T1: rat calcitonin receptor (rat, UniProt P32214 25-516)
T1 construct: whole, on cells; also called rCTR; rat calcitonin (a) receptor
T1 sequence (looked up): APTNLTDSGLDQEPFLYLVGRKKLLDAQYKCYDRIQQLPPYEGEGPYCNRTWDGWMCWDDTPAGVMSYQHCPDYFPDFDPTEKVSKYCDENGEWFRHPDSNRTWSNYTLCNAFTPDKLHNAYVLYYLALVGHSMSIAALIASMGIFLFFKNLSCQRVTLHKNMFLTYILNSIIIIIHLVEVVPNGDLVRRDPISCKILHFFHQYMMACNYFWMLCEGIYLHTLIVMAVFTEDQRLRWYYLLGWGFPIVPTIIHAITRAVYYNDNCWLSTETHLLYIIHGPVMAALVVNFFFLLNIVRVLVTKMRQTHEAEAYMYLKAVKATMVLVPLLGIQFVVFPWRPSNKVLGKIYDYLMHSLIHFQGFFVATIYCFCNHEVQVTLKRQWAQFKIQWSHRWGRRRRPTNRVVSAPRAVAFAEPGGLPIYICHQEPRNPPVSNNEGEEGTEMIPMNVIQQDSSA

T2: human calcitonin receptor (human, UniProt P30988 25-474)
T2 construct: whole, on cells; also called hCTR; hCT
T2 sequence (looked up): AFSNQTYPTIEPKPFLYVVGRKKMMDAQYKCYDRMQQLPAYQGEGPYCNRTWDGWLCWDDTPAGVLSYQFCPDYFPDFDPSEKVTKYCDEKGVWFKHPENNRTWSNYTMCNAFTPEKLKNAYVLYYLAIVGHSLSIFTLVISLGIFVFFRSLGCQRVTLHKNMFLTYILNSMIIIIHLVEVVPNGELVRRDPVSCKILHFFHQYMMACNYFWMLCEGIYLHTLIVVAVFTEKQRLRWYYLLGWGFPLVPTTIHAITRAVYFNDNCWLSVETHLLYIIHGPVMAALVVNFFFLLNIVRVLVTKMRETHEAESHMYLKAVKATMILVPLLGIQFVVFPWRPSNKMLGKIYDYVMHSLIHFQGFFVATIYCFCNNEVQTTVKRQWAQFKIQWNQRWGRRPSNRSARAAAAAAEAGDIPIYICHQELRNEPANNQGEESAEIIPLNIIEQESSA

T3: rat amylin receptor (rat calcitonin receptor + rat RAMP 3) (rat, UniProt P32214 25-516; Q9JJ73 23-147)
T3 construct: whole, on cells; also called rAmylin-R; rat amylin 3(a) receptor
T3 sequence (looked up) 1: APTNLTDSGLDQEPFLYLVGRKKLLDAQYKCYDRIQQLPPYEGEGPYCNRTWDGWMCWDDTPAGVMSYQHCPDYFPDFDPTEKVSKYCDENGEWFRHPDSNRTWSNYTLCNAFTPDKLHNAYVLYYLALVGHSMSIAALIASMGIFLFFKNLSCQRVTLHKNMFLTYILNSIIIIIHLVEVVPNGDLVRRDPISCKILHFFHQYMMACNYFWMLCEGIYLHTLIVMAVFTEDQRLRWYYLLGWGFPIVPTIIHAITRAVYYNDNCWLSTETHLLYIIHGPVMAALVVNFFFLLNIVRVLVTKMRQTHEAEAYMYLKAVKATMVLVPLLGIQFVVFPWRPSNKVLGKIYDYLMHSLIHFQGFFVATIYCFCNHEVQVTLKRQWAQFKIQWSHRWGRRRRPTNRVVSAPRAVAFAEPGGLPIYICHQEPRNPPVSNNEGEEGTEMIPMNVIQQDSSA
T3 sequence (looked up) 2: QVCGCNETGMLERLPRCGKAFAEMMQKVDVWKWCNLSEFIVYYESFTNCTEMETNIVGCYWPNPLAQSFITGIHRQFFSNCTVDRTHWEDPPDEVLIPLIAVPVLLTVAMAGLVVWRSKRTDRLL

B1: N^ε1-[2-[2-[2-[[(4S)-4-carboxy-4-(19-carboxynonadecanoylamino)butanoyl]amino]ethoxy]ethoxy]acetyl]-[Arg17,Pro21,Pro27,Pro29,Pro34]-h-amylin (peptide)
peptide: K([AEEA-γGlu-C20 diacid])CNTATCATQRLANFLRHSSPNFGAIPSPTNVGPNTY-NH2
modifications: disulfide 2-7; N-terminus assumed
SMILES: CC[C@H](C)[C@H](NC(=O)[C@H](C)NC(=O)CNC(=O)[C@H](Cc1ccccc1)NC(=O)[C@H](CC(N)=O)NC(=O)[C@@H]1CCCN1C(=O)[C@H](CO)NC(=O)[C@H](CO)NC(=O)[C@H](Cc1c[nH]cn1)NC(=O)[C@H](CCCNC(=N)N)NC(=O)[C@H](CC(C)C)NC(=O)[C@H](Cc1ccccc1)NC(=O)[C@H](CC(N)=O)NC(=O)[C@H](C)NC(=O)[C@H](CC(C)C)NC(=O)[C@H](CCCNC(=N)N)NC(=O)[C@H](CCC(N)=O)NC(=O)[C@@H](NC(=O)[C@H](C)NC(=O)[C@@H]1CSSC[C@H](NC(=O)[C@@H](N)CCCCNC(=O)COCCOCCNC(=O)CC[C@H](NC(=O)CCCCCCCCCCCCCCCCCCC(=O)O)C(=O)O)C(=O)N[C@@H](CC(N)=O)C(=O)N[C@@H]([C@@H](C)O)C(=O)N[C@@H](C)C(=O)N[C@@H]([C@@H](C)O)C(=O)N1)[C@@H](C)O)C(=O)N1CCC[C@H]1C(=O)N[C@@H](CO)C(=O)N1CCC[C@H]1C(=O)N[C@H](C(=O)N[C@@H](CC(N)=O)C(=O)N[C@H](C(=O)NCC(=O)N1CCC[C@H]1C(=O)N[C@@H](CC(N)=O)C(=O)N[C@H](C(=O)N[C@@H](Cc1ccc(O)cc1)C(N)=O)[C@@H](C)O)C(C)C)[C@@H](C)O
notes: synthetic analogue of human amylin; also called compound 56
B2: N^ε1-[2-[2-[2-[[(4S)-4-carboxy-4-(19-carboxynonadecanoylamino)butanoyl]amino]ethoxy]ethoxy]acetyl]-[Arg17,Pro21,Pro27,Pro31,His35]-h-amylin (peptide)
peptide: K([AEEA-γGlu-C20 diacid])CNTATCATQRLANFLRHSSPNFGAIPSSTPVGSHTY-NH2
modifications: disulfide 2-7; N-terminus assumed
SMILES: CC[C@H](C)[C@H](NC(=O)[C@H](C)NC(=O)CNC(=O)[C@H](Cc1ccccc1)NC(=O)[C@H](CC(N)=O)NC(=O)[C@@H]1CCCN1C(=O)[C@H](CO)NC(=O)[C@H](CO)NC(=O)[C@H](Cc1c[nH]cn1)NC(=O)[C@H](CCCNC(=N)N)NC(=O)[C@H](CC(C)C)NC(=O)[C@H](Cc1ccccc1)NC(=O)[C@H](CC(N)=O)NC(=O)[C@H](C)NC(=O)[C@H](CC(C)C)NC(=O)[C@H](CCCNC(=N)N)NC(=O)[C@H](CCC(N)=O)NC(=O)[C@@H](NC(=O)[C@H](C)NC(=O)[C@@H]1CSSC[C@H](NC(=O)[C@@H](N)CCCCNC(=O)COCCOCCNC(=O)CC[C@H](NC(=O)CCCCCCCCCCCCCCCCCCC(=O)O)C(=O)O)C(=O)N[C@@H](CC(N)=O)C(=O)N[C@@H]([C@@H](C)O)C(=O)N[C@@H](C)C(=O)N[C@@H]([C@@H](C)O)C(=O)N1)[C@@H](C)O)C(=O)N1CCC[C@H]1C(=O)N[C@@H](CO)C(=O)N[C@@H](CO)C(=O)N[C@H](C(=O)N1CCC[C@H]1C(=O)N[C@H](C(=O)NCC(=O)N[C@@H](CO)C(=O)N[C@@H](Cc1c[nH]cn1)C(=O)N[C@H](C(=O)N[C@@H](Cc1ccc(O)cc1)C(N)=O)[C@@H](C)O)C(C)C)[C@@H](C)O
notes: synthetic analogue of human amylin; also called compound 57
B3: N^ε1-[2-[2-[2-[[(4S)-4-carboxy-4-(19-carboxynonadecanoylamino)butanoyl]amino]ethoxy]ethoxy]acetyl]-[Arg17,Pro21,Pro27,Pro34]-h-amylin (peptide)
peptide: K([AEEA-γGlu-C20 diacid])CNTATCATQRLANFLRHSSPNFGAIPSSTNVGPNTY-NH2
modifications: disulfide 2-7; N-terminus assumed
SMILES: CC[C@H](C)[C@H](NC(=O)[C@H](C)NC(=O)CNC(=O)[C@H](Cc1ccccc1)NC(=O)[C@H](CC(N)=O)NC(=O)[C@@H]1CCCN1C(=O)[C@H](CO)NC(=O)[C@H](CO)NC(=O)[C@H](Cc1c[nH]cn1)NC(=O)[C@H](CCCNC(=N)N)NC(=O)[C@H](CC(C)C)NC(=O)[C@H](Cc1ccccc1)NC(=O)[C@H](CC(N)=O)NC(=O)[C@H](C)NC(=O)[C@H](CC(C)C)NC(=O)[C@H](CCCNC(=N)N)NC(=O)[C@H](CCC(N)=O)NC(=O)[C@@H](NC(=O)[C@H](C)NC(=O)[C@@H]1CSSC[C@H](NC(=O)[C@@H](N)CCCCNC(=O)COCCOCCNC(=O)CC[C@H](NC(=O)CCCCCCCCCCCCCCCCCCC(=O)O)C(=O)O)C(=O)N[C@@H](CC(N)=O)C(=O)N[C@@H]([C@@H](C)O)C(=O)N[C@@H](C)C(=O)N[C@@H]([C@@H](C)O)C(=O)N1)[C@@H](C)O)C(=O)N1CCC[C@H]1C(=O)N[C@@H](CO)C(=O)N[C@@H](CO)C(=O)N[C@H](C(=O)N[C@@H](CC(N)=O)C(=O)N[C@H](C(=O)NCC(=O)N1CCC[C@H]1C(=O)N[C@@H](CC(N)=O)C(=O)N[C@H](C(=O)N[C@@H](Cc1ccc(O)cc1)C(N)=O)[C@@H](C)O)C(C)C)[C@@H](C)O
notes: synthetic analogue of human amylin; also called compound 50
B4: N^ε1-[2-[2-[2-[[(4S)-4-carboxy-4-(19-carboxynonadecanoylamino)butanoyl]amino]ethoxy]ethoxy]acetyl]-[Arg17,Pro21,Pro27,Pro34,His35]-h-amylin (peptide)
peptide: K([AEEA-γGlu-C20 diacid])CNTATCATQRLANFLRHSSPNFGAIPSSTNVGPHTY-NH2
modifications: disulfide 2-7; N-terminus assumed
SMILES: CC[C@H](C)[C@H](NC(=O)[C@H](C)NC(=O)CNC(=O)[C@H](Cc1ccccc1)NC(=O)[C@H](CC(N)=O)NC(=O)[C@@H]1CCCN1C(=O)[C@H](CO)NC(=O)[C@H](CO)NC(=O)[C@H](Cc1c[nH]cn1)NC(=O)[C@H](CCCNC(=N)N)NC(=O)[C@H](CC(C)C)NC(=O)[C@H](Cc1ccccc1)NC(=O)[C@H](CC(N)=O)NC(=O)[C@H](C)NC(=O)[C@H](CC(C)C)NC(=O)[C@H](CCCNC(=N)N)NC(=O)[C@H](CCC(N)=O)NC(=O)[C@@H](NC(=O)[C@H](C)NC(=O)[C@@H]1CSSC[C@H](NC(=O)[C@@H](N)CCCCNC(=O)COCCOCCNC(=O)CC[C@H](NC(=O)CCCCCCCCCCCCCCCCCCC(=O)O)C(=O)O)C(=O)N[C@@H](CC(N)=O)C(=O)N[C@@H]([C@@H](C)O)C(=O)N[C@@H](C)C(=O)N[C@@H]([C@@H](C)O)C(=O)N1)[C@@H](C)O)C(=O)N1CCC[C@H]1C(=O)N[C@@H](CO)C(=O)N[C@@H](CO)C(=O)N[C@H](C(=O)N[C@@H](CC(N)=O)C(=O)N[C@H](C(=O)NCC(=O)N1CCC[C@H]1C(=O)N[C@@H](Cc1c[nH]cn1)C(=O)N[C@H](C(=O)N[C@@H](Cc1ccc(O)cc1)C(N)=O)[C@@H](C)O)C(C)C)[C@@H](C)O
notes: synthetic analogue of human amylin; also called compound 58

Columns and labels:
rat calcitonin receptor [1] = target: T1, rat calcitonin receptor; assay: ratio of binding IC50s: rat calcitonin receptor over rat amylin receptor (reference)
[2] = target: T2, human calcitonin receptor; assay: ratio of binding IC50s: human calcitonin receptor over human amylin receptor (reference)
Description: The resulting pellet was resuspended, homogenized and centrifuged (20.000 rpm, 15 min) in a buffer containing 20 mM Na-HEPES and 0.1 mM EDTA (pH 7.4, buffer 2). The resulting pellet was resuspended in buffer 2 and protein concentration was measured (BCA protein Assay, Pierce). The homogenate was kept cold during the whole procedure. The membranes were kept at −80° C. until use. The assay was performed in a 384 well Optiplate (PerkinElmer) in a total volume of 40 ul. Membranes were mixed with SPA beads. Final concentration of membranes 35 ng/μL final and SPA beads was 0.05 mg/well. Test-compounds were dissolved in DMSO and further diluted in assay buffer (50 mM Hepes, pH 7.4, 1 mM CaCl2, 5 mM MgCl₂, 0.1% OA and 0.02% Tween20). […] The final mixture was incubated with shaking at 400 rpm for 120 min at 25° C. prior to centrifugation (1500 rpm, 10 min). Samples were analyzed on TopCounter™ (Packard). The IC₅₀ was calculated using (one site binding competition analysis) GraphPad Prism5 as a measure of receptor affinity.
Membranes were prepared in the following way; the cells were rinsed with PBS and incubated with Versene for approximately 5 min before harvesting. The cells were flushed with PBS and the cell-suspension was centrifuged for 5 min at 1000 rpm. Cells were homogenized (Ultrathurrax) in a buffer containing 20 mM Na-HEPES and 10 mM EDTA (pH 7.4) and centrifuged at 20.000 rpm for 15 min. The resulting pellet was resuspended, homogenized and centrifuged (20.000 rpm, 15 min) in a buffer containing 20 mM Na-HEPES and 0.1 mM EDTA (pH 7.4, buffer 2). The resulting pellet was resuspended in buffer 2 and protein concentration was measured (BCA protein Assay, Pierce). The homogenate was kept cold during the whole procedure. The membranes were kept at −80° C. until use. Assay was performed in a 384 well Optiplate (PerkinElmer) in a total volume of 40 ul. Membranes were mixed with SPA beads.

rat calcitonin receptor [3] = target: T1, rat calcitonin receptor; assay: SPA competition with 125I-calcitonin, membranes of BHK cells with rat calcitonin receptor (Assay VIII)
[4] = target: T3, rat amylin receptor (rat calcitonin …); assay: SPA competition with 125I-rat amylin, membranes of BHK cells with rat calcitonin receptor + rat RAMP3 (Assay VI)

Binder | Ratio rCT/rAmylin binding (rat calcitonin receptor [1]) | Ratio hCT/hAmylin binding [2] | IC50 (rat calcitonin receptor [3]) [nM] | IC50 [4] [nM]
B1 | 131 | 42.6 | 5.26 | 0.04
B2 | 135 | 133 | 24.4 | 0.181
B3 | 81.7 | 36 | 5.63 | 0.069
B4 | 76.6 | 109 | 10.3 | 0.135
